From PMC12022973 (2025)
Positions of bridges follow the written chain, without caps; N, C: chain ends. Chains are numbered I, II in the order given. No end group written: not given here.

Target: preformed MYC/MAX heterodimer (human | , UniProt P61244 1-160)
Experiment: FP

preformed MYC/MAX heterodimer, sequence (chain, as listed by the source, chain 1 of 2): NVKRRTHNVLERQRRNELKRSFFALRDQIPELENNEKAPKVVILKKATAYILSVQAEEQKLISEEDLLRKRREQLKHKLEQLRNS
preformed MYC/MAX heterodimer, sequence (P61244 2-160, chain 2 of 2): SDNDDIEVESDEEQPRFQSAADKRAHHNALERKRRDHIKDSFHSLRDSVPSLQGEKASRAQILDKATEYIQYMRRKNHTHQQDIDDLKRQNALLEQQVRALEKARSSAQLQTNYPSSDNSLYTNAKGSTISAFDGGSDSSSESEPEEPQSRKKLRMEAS

B1: fluorescein-labeled CHD^Max-1 (cross-linked helix dimer derived from MAX) (designed binder)
chain 1: LREKIATLQWCIEELRK
chain 2: LRRKNETHQWEIEELC
modifications: bridge I:11-II:16; not fully specified (bridges); also: fluorescein label, chain and position not given here
Kd: 460 nM
